Results as given in patent US20170260282A1 (Janssen / Centocor, published 2017).

T1: Human GITR (cell surface) (human, UniProt Q9Y5U5 26-241)
T1 construct: also called hGITR; huGITR
T1 sequence: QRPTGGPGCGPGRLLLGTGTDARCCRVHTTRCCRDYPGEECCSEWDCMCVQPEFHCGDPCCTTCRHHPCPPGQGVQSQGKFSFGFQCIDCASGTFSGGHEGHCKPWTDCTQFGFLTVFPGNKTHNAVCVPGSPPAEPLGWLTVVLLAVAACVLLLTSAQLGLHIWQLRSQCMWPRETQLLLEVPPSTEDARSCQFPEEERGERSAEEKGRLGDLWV

T2: Cyno GITR (cell surface) (cynomolgus monkey)
T2 construct: Presented on transfected or transduced HEK293 cells; also called cynomolgus monkey GITR
T2 chain: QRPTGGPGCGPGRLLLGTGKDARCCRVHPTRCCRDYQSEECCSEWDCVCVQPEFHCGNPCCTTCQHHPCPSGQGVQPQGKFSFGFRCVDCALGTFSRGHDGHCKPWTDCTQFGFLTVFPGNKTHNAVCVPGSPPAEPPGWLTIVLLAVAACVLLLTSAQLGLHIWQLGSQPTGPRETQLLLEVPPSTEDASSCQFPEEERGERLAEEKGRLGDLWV

T3: recombinant human GITR ECD (human, UniProt Q9Y5U5 26-161)
T3 construct: also called human GITR extracellular domain
T3 sequence: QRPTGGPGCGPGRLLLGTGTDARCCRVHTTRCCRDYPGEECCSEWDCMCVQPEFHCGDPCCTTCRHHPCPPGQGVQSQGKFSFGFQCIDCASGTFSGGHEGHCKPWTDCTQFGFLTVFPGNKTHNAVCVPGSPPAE

T4: cyno GITR ECD (cynomolgus monkey)
T4 construct: Only the extracellular domain stood in the SPR assay
T4 chain: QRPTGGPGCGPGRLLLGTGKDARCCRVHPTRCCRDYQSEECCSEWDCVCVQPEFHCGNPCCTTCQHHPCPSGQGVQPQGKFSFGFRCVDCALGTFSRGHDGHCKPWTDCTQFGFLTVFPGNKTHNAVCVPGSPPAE

B1: TRGB144 (antibody, human IgG1, kappa, V domains shown)
VH: QVQLVQSGAEVKKPGSSVKVSCKASGGTFSSYAISWVRQAPGQGLEWMGGIIPIFGTANYAQKFQGRVTITADESTSTAYMELSSLRSEDTAVYYCARHGFQRGYLDYWGQGTLVTVSS
VL: EIVLTQSPATLSLSPGERATLSCRASQSVSSYLAWYQQKPGQAPRLLIYDASNRATGIPARFSGSGSGTDFTLTISSLEPEDFAVYYCQQRSNWPLTFGQGTKVEIKR
notes: human IgG1/kappa
B2: TRGB34 (antibody, human IgG1, kappa, V domains shown)
VH: EVQLVQSGAEVKKPGESLKISCKGSGYSFTSYWIGWVRQMPGKGLEWMGIIYPGDSDTRYSPSFQGQVTISADKSISTAYLQWSSLKASDTAMYYCARDYGWHDFDYWGQGTLVTVSS
VL: EIVLTQSPATLSLSPGERATLSCRASQSVSSYLAWYQQKPGQAPRLLIYDASNRATGIPARFSGSGSGTDFTLTISSLEPEDFAVYYCQQRSNWPLTFGQGTKVEIKR
notes: human IgG1/kappa
B3: TRGB31 (antibody, human IgG1, kappa, V domains shown)
VH: EVQLVQSGAEVKKPGESLKISCKGSGYSFTSYWIGWVRQMPGKGLEWMGIIDPSDSDTRYSPSFQGQVTISADKSISTAYLQWSSLKASDTAMYYCARVFPYYGLVLDYWGQGTLVTVSS
VL: EIVLTQSPATLSLSPGERATLSCRASQSVSSYLAWYQQKPGQAPRLLIYDASNRATGIPARFSGSGSGTDFTLTISSLEPEDFAVYYCQQRSNWPLTFGQGTKVEIKR
notes: human IgG1/kappa
B4: TRGB120 (antibody, human IgG1, kappa, V domains shown)
VH: QVQLVQSGAEVKKPGSSVKVSCKASGGTFSSYAISWVRQAPGQGLEWMGGIIPIFGTANYAQKFQGRVTITADESTSTAYMELSSLRSEDTAVYYCARPRRNTNELDYWGQGTLVTVSS
VL: not shown
notes: human IgG1/kappa
B5: TRGB14 (antibody, human IgG1, kappa, V domains shown)
VH: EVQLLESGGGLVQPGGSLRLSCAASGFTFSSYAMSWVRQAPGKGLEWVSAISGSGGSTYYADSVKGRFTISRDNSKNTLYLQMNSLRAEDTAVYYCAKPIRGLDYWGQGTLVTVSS
VL: EIVLTQSPATLSLSPGERATLSCRASQSVNNFLAWYQQKPGQAPRLLIYDASNRATGIPARFSGSGSGTDFTLTISSLEPEDFAVYYCQQGFNAPLTFGQGTKVEIKR
notes: human IgG1/kappa
B6: TRGB20 (antibody, human IgG1, kappa, V domains shown)
VH: EVQLLESGGGLVQPGGSLRLSCAASGFTFSGYWMNWVRQAPGKGLEWVSGISSDGGSKYYADSVKGRFTISRDNSKNTLYLQMNSLRAEDTAVYYCAKEVVYDHYAALDYWGQGTLVTVSS
VL: EIVLTQSPATLSLSPGERATLSCRASQSVNSFLAWYQQKPGQAPRLLIYYASNRATGIPARFSGSGSGTDFTLTISSLEPEDFAVYYCQQYIRWPLTFGQGTKVEIKR
notes: human IgG1/kappa
B7: TRGB23 (antibody, human IgG1, kappa, V domains shown)
VH: QVQLVQSGAEVKKPGSSVKVSCKASGGTFSSYAISWVRQAPGQGLEWMGGIIPIFGTANYAQKFQGRVTITADESTSTAYMELSSLRSEDTAVYYCARHGNWLHFNLDYWGQGTLVTVSS
VL: EIVLTQSPATLSLSPGERATLSCRASQSVSSYLAWYQQKPGQAPRLLIYDASNRATGIPARFSGSGSGTDFTLTISSLEPEDFAVYYCQQRSNWPLTFGQGTKVEIKR
B8: TRGB162 (antibody, human IgG1, kappa, V domains shown)
VH: QVQLVQSGAEVKKPGSSVKVSCKASGGTFSSYAISWVRQAPGQGLEWMGGIIPIFGNANYAQKFQGRVTITADESTSTAYMELSSLRSEDTAVYYCARHVYKRGVLNYWGQGTLVTVSS
VL: EIVLTQSPATLSLSPGERATLSCRASQSVSSYLAWYQQKPGQAPRLLIYDASNRATGIPARFSGSGSGTDFTLTISSLEPEDFAVYYCQQRSNWPLTFGQGTKVEIKR
notes: human IgG1/kappa
B9: TRGB35 (antibody, human IgG1, kappa, V domains shown)
VH: EVQLVQSGAEVKKPGESLKISCKGSGYSFTSYWISWVRQMPGKGLEWMGIIDPGDSDTRYSPSFQGQVTISADKSISTAYLQWSSLKASDTAMYYCARHRWSTSLLLDYWGQGTLVTVSS
VL: EIVLTQSPATLSLSPGERATLSCRASQSVSSYLAWYQQKPGQAPRLLIYDASNRATGIPARFSGSGSGTDFTLTISSLEPEDFAVYYCQQRSNWPLTFGQGTKVEIKR
notes: human IgG1/kappa
B10: TRGB159 (antibody, human IgG1, kappa, V domains shown)
VH: QVQLVQSGAEVKKPGSSVKVSCKASGGTFSSYAISWVRQAPGQGLEWMGGIIPIFGTANYAQKFQGRVTITADESTSTAYMELSSLRSEDTAVYYCARHGRNSGRLDYWGQGTLVTVSS
VL: EIVLTQSPATLSLSPGERATLSCRASQSVSSYLAWYQQKPGQAPRLLIYDASNRATGIPARFSGSGSGTDFTLTISSLEPEDFAVYYCQQRSNWPLTFGQGTKVEIKR
notes: human IgG1/kappa
B11: TRGB5 (antibody, human IgG1, kappa, V domains shown)
VH: EVQLLESGGGLVQPGGSLRLSCAASGFTFSGYWMSWVRQAPGKGLEWVSAISGSGGSTYYADSVKGRFTISRDNSKNTLYLQMNSLRAEDTAVYYCAKDFYWDAFDYWGQGTLVTVSS
VL: EIVLTQSPATLSLSPGERATLSCRASQSVSSYLAWYQQKPGQAPRLLIYDASNRATGIPARFSGSGSGTDFTLTISSLEPEDFAVYYCQQRSNWPLTFGQGTKVEIKR
notes: human IgG1/kappa
B12: TRGB134 (antibody, human IgG1, kappa, V domains shown)
VH: QVQLVQSGAEVKKPGSSVKVSCKASGGTFSSYAISWVRQAPGQGLEWMGGIIPIFGTANYAQKFQGRVTITADESTSTAYMELSSLRSEDTAVYYCARHRWGSGNLDYWGQGTLVTVSS
VL: EIVLTQSPATLSLSPGERATLSCRASQSVSSYLAWYQQKPGQAPRLLIYDASNRATGIPARFSGSGSGTDFTLTISSLEPEDFAVYYCQQRSNWPLTFGQGTKVEIKR
notes: human IgG1/kappa

Tests used:
[1] = molecular target: T1, Human GITR (cell surface); test: flow cytometry, transiently transfected HEK293F cells, 0.1 mg/mL antibody
Cyno GITR (cell surface) [2] = molecular target: T2, Cyno GITR (cell surface); test: as above
[3] = molecular target: T1, Human GITR (cell surface); test: cell-based or functional assay
Cyno GITR (cell surface) [4] = molecular target: T2, Cyno GITR (cell surface); test: cell-based or functional assay
[5] = molecular target: T3, recombinant human GITR ECD; test: SPR (ProteOn XPR36), mAb captured by anti-human Fc, GITR ECD as analyte, 25 °C
Method: (§1) The affinities of the GITR antibodies to recombinant human GITR ECD were measured by Surface Plasmon Resonance (SPR) using a ProteOn XPR36 protein interaction array system (BioRad).
(§2) The rates of GITR ECD association and dissociation were measured for each variant. The biosensor surface was prepared by covalently coupling Goat anti-Human IgG (Fc) to the surface of a GLC chip (BioRad) using the manufacturer instructions for amine-coupling chemistry. Approximately 8800 RU (response units) of Goat anti-Human IgG (Fc) antibody (Jackson ImmunoResearch laboratories Prod #109-005-098) were immobilized. […] Since the mixture was 1:1 about 50% of these RU immobilized are expected to be goat anti-human Fc. The binding kinetics experiments were performed at 25° C. in running buffer (PBS pH 7.4, 0.005% P20, 3 mM EDTA). […] (1:3) serial dilutions of human GITR ECD or cyno GITR ECD starting at 100 nM were prepared in running buffer. […] The reference spots (Goat anti-Human IgG (Fc)-modified surface) containing no candidate captured were used as a reference surface. Capture of mAb was followed by 3 min injection (association phase) of antigen at 40 μL/min, followed by 10 min of buffer flow (dissociation phase). The chip surface was regenerated by injection of 0.85% phosphoric acid at 100 μL/min. Data were processed on the instrument software. Double reference subtraction of the data was performed by subtracting the curves generated by buffer injection from the reference-subtracted curves for analyte injections. Kinetic analysis of the data was performed using 1:1 Langmuir binding model with group fit. The result for each mAb was reported in the format of kon or on-rate, koff or off-rate, and KD (Equilibrium dissociation constant) (Table 7).

cyno GITR ECD = molecular target: T4, cyno GITR ECD; test: as above
Method: as §1, §2

binding result [1]	binding result (Cyno GITR (cell surface) [2])	ADCC EC50, HEK293-hGITR target cells, NK-92 FcγRIIIa 176V/V effector cells [3] [ng/mL]	other results	Binder
binds	binds			B1
	binds	5.8		B2
	binds	7.6		B3
binds	binds			B4
binds	binds			B5
binds	binds			B6
		4.4	ADCC EC50, HEK293-cyno GITR target cells, NK-92 FcγRIIIa 176V/V effector cells (Cyno GITR (cell surface) [4]): 10.2 ng/mL	B7
binds	binds			B8
binds	binds			B9
		2.9	ADCC EC50, HT1080-hGITR target cells, NK-92 FcγRIIIa 176V/V effector cells [3]: 6.7 ng/mL; ADCC EC50, HEK293-cyno GITR target cells, NK-92 FcγRIIIa 176V/V effector cells (Cyno GITR (cell surface) [4]): 25.8 ng/mL; Kd [5]: 3.04 nM; koff [5]: 0.00162 s⁻¹; kon [5]: 532000 M⁻¹ s⁻¹; Kd (cyno GITR ECD): 10.6 nM; koff (cyno GITR ECD): 0.00197 s⁻¹; kon (cyno GITR ECD): 185000 M⁻¹ s⁻¹	B10
binds	binds			B11
binds	binds			B12
